The values that follow come from paper PMC11903750.

Experiment [1] deals with 30S ribosomal subunit (E. coli) (UniProt P0A7R9). Description: FRET or BRET; as a4, with 5 µM edeine. In general terms: BRET reads energy transfer from a luciferase to a nearby fluorophore.
For experiment [2] the target is unchanged. Put plainly: FRET or BRET; as a4, with 5 µM GE81112.

In experiment [1], “IF3 E166C, double-labelled (IF3DL) (from UniProt P0A707 1-180) (natural protein)” came in with a fold reduction of koff with edeine against no antibiotic of 4 fold. The fold reduction of koff with GE81112 against no antibiotic in experiment [2] worked out at 2 fold.
